The record followed here is PMC11839208 (2025).

In the test the target is Concanavalin A (Canavalia ensiformis, UniProt P02866). Nature of the test: spectral shift (thermal shift in results).
Sequence of Concanavalin A (P02866 30-148, chain 1 of 2): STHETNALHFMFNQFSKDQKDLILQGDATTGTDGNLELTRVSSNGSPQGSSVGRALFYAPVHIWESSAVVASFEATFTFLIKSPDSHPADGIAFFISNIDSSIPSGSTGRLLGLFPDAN
Sequence of Concanavalin A (P02866 164-281, chain 2 of 2): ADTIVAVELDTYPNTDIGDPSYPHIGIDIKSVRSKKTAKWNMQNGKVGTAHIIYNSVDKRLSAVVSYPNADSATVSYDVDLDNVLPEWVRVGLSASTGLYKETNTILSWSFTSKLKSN

B1: FimA (protein)
chain: AATTVNGGTVHFKGEVVNAACAVDAGSVDQTVQLGQVRTASLAQEGATSSAVGFNIQLNDCDTNVASKAAVAFLGTAIDAGHTNVLALQSSAAGSATNVGVQILDRTGAALTLDGATFSSETTLNNGTNTIPFQARYFATGAATPGAANADATFKVQYQ
For B1, the Kd was around 40 µM.
